# Measurements as given in IntAct's records for PubMed 22340593.
# B1: Tumor protein p73 (Homo sapiens), O15350 (parent)
# chain: MAQSTATSPDGGTTFEHLWSSLEPDSTYFDLPQSSRGNNEVVGGTDSSMDVFHLEGMTTSVMAQFNLLSSTMDQMSSRAASASPYTPEHAASVPTHSPYAQPSSTFDTMSPAPVIPSNTDYPGPHHFEVTFQQSSTAKSATWTYSPLLKKLYCQIAKTCPIQIKVSTPPPPGTAIRAMPVYKKAEHVTDVVKRCPNHELGRDFNEGQSAPASHLIRVEGNNLSQYVDDPVTGRQSVVVPYEPPQVGTEFTTILYNFMCNSSCVGGMNRRPILIIITLEMRDGQVLGRRSFEGRICACPGRDRKADEDHYREQQALNESSAKNGAASKRAFKQSPPAVPALGAGVKKRRHGDEDTYYLQVRGRENFEILMKLKESLELMELVPQPLVDSYRQQQQLLQRPSHLQPPSYGPVLSPMNKVHGGMNKLPSVNQLVGQPPPHSSAATPNLGPVGPGMLNNHGHAVPANGEMSSSHSAQSMVSGSHCTPPPPYHADPSLVSFLTGLGCPNCIEYFTSQGLQSIYHLQNLTIEDLGALKIPEQYRMTIWRGLQDLKQGHDYSTAQQLLRSSNAATISIGGSGELQRQRVMEAVHFRVRHTITIPNRGGPGGGPDEWADFGFDLPDCKARKQPIKEEFTEAEIH
# partner: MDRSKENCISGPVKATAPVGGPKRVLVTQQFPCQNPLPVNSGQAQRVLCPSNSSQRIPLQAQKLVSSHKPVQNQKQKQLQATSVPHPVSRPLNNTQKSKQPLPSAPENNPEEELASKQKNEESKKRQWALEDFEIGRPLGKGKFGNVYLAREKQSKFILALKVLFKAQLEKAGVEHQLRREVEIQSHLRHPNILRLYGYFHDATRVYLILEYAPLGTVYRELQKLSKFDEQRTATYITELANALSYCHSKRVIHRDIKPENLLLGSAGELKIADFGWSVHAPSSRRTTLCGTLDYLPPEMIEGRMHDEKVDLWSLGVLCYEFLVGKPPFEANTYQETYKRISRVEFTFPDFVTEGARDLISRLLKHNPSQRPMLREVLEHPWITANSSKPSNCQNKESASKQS
# B2: Tumor protein p73 (Homo sapiens), O15350 (parent)
# chain: B1 chain
# Variants of: B1
# Details: with aurka_human AURKA
row,effect of a mutation on the interaction,Variant
1,increasing interaction strength,S235D

# Variants of: B2
# Details: with hspa9_human HSPA9, P38646
# Sequence of hspa9_human HSPA9, P38646 (P38646 whole entry): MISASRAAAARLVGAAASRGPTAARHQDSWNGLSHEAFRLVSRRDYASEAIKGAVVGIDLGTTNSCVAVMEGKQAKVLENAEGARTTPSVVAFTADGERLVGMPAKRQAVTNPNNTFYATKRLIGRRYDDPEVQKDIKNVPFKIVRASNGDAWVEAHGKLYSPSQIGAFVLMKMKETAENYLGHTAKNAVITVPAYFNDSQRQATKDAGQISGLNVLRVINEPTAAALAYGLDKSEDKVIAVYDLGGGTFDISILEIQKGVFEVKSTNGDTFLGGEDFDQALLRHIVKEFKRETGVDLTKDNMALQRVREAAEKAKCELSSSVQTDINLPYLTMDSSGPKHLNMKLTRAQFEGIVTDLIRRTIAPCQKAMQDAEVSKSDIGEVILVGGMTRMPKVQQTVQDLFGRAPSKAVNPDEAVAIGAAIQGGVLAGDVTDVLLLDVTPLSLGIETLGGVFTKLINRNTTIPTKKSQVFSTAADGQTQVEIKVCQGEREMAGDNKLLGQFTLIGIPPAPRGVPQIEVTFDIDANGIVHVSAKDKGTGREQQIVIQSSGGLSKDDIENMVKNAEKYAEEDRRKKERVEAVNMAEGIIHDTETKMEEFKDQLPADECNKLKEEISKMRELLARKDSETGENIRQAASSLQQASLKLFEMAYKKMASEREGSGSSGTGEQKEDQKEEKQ
row,effect of a mutation on the interaction,Variant
1,increasing interaction strength,S235D
